Measured values: the supplement of paper PMC9112550, “Optimization of the antimicrobial peptide Bac7 by deep mutational scanning” (BMC Biology, 2022)

What follows are sequences tested on Escherichia coli TOP10 (assay: shrunken log2 fold change of peptide-encoding DNA abundance (4.5 h post-induction vs induction); higher = less antimicrobial activity (less host growth inhibition)). Conditions: time post-induction: 4.5 h; library: site-saturation at positions 5, 18, 19, 20.
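Further: peptides expressed intracellularly from a pBAD plasmid library in pooled LB shake-flask culture, induced with 0.3% L-arabinose, DNA abundance read by NGS, three biological replicates, DESeq2 with apeglm shrinkage.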

Question: For RRIRIRPPRLPRPRPRPMIIPRP, which “shrunken log2 fold change” value is on record?
Answer: Its value is -0.295.

Question: How did the “shrunken log2 fold change” value turn out when RRIRIRPPRLPRPRPRPMKPPRP was run?
Answer: Its value is -0.00581.

Question: Which “shrunken log2 fold change” value does the source give for RRIRIRPPRLPRPRPRPMNKPRP here?
Answer: The value was -0.627.

Question: For RRIRIRPPRLPRPRPRPMPFPRP, which “shrunken log2 fold change” value is on record?
Answer: The value was 0.0123.

Question: For RRIRIRPPRLPRPRPRPMQNPRP, which “shrunken log2 fold change” value is on record?
Answer: Its value is 0.112.

Question: For RRIRIRPPRLPRPRPRPMRSPRP, which “shrunken log2 fold change” value is on record?
Answer: The value was 0.000106.

Question: How did the “shrunken log2 fold change” value turn out when RRIRIRPPRLPRPRPRPMSNPRP was run?
Answer: The value was 0.115.

Question: For RRIRIRPPRLPRPRPRPMWMPRP, which “shrunken log2 fold change” value is on record?
Answer: The value was -0.0849.

Question: How did the “shrunken log2 fold change” value turn out when RRIRIRPPRLPRPRPRPMWWPRP was run?
Answer: Its value is 0.141.

Question: For RRIRIRPPRLPRPRPRPMWYPRP, which “shrunken log2 fold change” value is on record?
Answer: Its value is -0.554.

Question: How did the “shrunken log2 fold change” value turn out when RRIRIRPPRLPRPRPRPMYCPRP was run?
Answer: The value was -0.183.

Question: For RRIRIRPPRLPRPRPRPMYTPRP, which “shrunken log2 fold change” value is on record?
Answer: The value was -0.244.

Question: RRIRIRPPRLPRPRPRPNARPRP was tested. Which “shrunken log2 fold change” value did it give?
Answer: Its value is 0.0831.

Question: With RRIRIRPPRLPRPRPRPNCCPRP as the sequence, how does the “shrunken log2 fold change” value read?
Answer: Its value is -0.0793.

Question: RRIRIRPPRLPRPRPRPNCKPRP was tested. Which “shrunken log2 fold change” value did it give?
Answer: The value was -0.658.

Question: For RRIRIRPPRLPRPRPRPNDDPRP, which “shrunken log2 fold change” value is on record?
Answer: Its value is -0.0364.

Question: With RRIRIRPPRLPRPRPRPNDYPRP as the sequence, how does the “shrunken log2 fold change” value read?
Answer: The value was -0.312.

Question: For RRIRIRPPRLPRPRPRPNEAPRP, which “shrunken log2 fold change” value is on record?
Answer: The value was 0.135.

Question: Which “shrunken log2 fold change” value does the source give for RRIRIRPPRLPRPRPRPNEFPRP here?
Answer: The value was -0.295.

Question: With RRIRIRPPRLPRPRPRPNEIPRP as the sequence, how does the “shrunken log2 fold change” value read?
Answer: Its value is -0.191.

Question: For RRIRIRPPRLPRPRPRPNFGPRP, which “shrunken log2 fold change” value is on record?
Answer: Its value is -0.0272.

Question: How did the “shrunken log2 fold change” value turn out when RRIRIRPPRLPRPRPRPNFKPRP was run?
Answer: The value was -0.144.

Question: For RRIRIRPPRLPRPRPRPNGTPRP, which “shrunken log2 fold change” value is on record?
Answer: Its value is -0.201.

Question: RRIRIRPPRLPRPRPRPNHQPRP was tested. Which “shrunken log2 fold change” value did it give?
Answer: Its value is -0.164.

Question: RRIRIRPPRLPRPRPRPNHVPRP was tested. Which “shrunken log2 fold change” value did it give?
Answer: The value was -0.278.

Question: How did the “shrunken log2 fold change” value turn out when RRIRIRPPRLPRPRPRPNKMPRP was run?
Answer: The value was -0.464.

Question: RRIRIRPPRLPRPRPRPNLKPRP was tested. Which “shrunken log2 fold change” value did it give?
Answer: The value was -0.484.

Question: With RRIRIRPPRLPRPRPRPNLMPRP as the sequence, how does the “shrunken log2 fold change” value read?
Answer: Its value is -0.377.

Question: Which “shrunken log2 fold change” value does the source give for RRIRIRPPRLPRPRPRPNLNPRP here?
Answer: The value was -0.237.

Question: Which “shrunken log2 fold change” value does the source give for RRIRIRPPRLPRPRPRPNMPPRP here?
Answer: The value was -0.611.

Question: With RRIRIRPPRLPRPRPRPNMQPRP as the sequence, how does the “shrunken log2 fold change” value read?
Answer: The value was -0.29.

Question: Which “shrunken log2 fold change” value does the source give for RRIRIRPPRLPRPRPRPNMTPRP here?
Answer: The value was -0.804.

Question: With RRIRIRPPRLPRPRPRPNNVPRP as the sequence, how does the “shrunken log2 fold change” value read?
Answer: The value was -0.7.

Question: Which “shrunken log2 fold change” value does the source give for RRIRIRPPRLPRPRPRPNQMPRP here?
Answer: The value was -0.173.

Question: How did the “shrunken log2 fold change” value turn out when RRIRIRPPRLPRPRPRPNRMPRP was run?
Answer: Its value is -0.0394.

Question: Which “shrunken log2 fold change” value does the source give for RRIRIRPPRLPRPRPRPNSDPRP here?
Answer: Its value is -0.267.

Question: RRIRIRPPRLPRPRPRPNSTPRP was tested. Which “shrunken log2 fold change” value did it give?
Answer: The value was -0.722.

Question: RRIRIRPPRLPRPRPRPNTKPRP was tested. Which “shrunken log2 fold change” value did it give?
Answer: Its value is -0.202.

Question: Which “shrunken log2 fold change” value does the source give for RRIRIRPPRLPRPRPRPNWIPRP here?
Answer: The value was -0.565.

Question: Which “shrunken log2 fold change” value does the source give for RRIRIRPPRLPRPRPRPNWKPRP here?
Answer: Its value is -0.00224.

Question: Which “shrunken log2 fold change” value does the source give for RRIRIRPPRLPRPRPRPNWMPRP here?
Answer: The value was -0.341.

Question: How did the “shrunken log2 fold change” value turn out when RRIRIRPPRLPRPRPRPNWQPRP was run?
Answer: Its value is -0.0358.

Question: With RRIRIRPPRLPRPRPRPNYNPRP as the sequence, how does the “shrunken log2 fold change” value read?
Answer: Its value is -1.12.

Question: Which “shrunken log2 fold change” value does the source give for RRIRIRPPRLPRPRPRPNYTPRP here?
Answer: Its value is -0.516.

Question: How did the “shrunken log2 fold change” value turn out when RRIRIRPPRLPRPRPRPPAHPRP was run?
Answer: Its value is 0.139.

Question: RRIRIRPPRLPRPRPRPPAVPRP was tested. Which “shrunken log2 fold change” value did it give?
Answer: The value was 0.279.

Question: RRIRIRPPRLPRPRPRPPAWPRP was tested. Which “shrunken log2 fold change” value did it give?
Answer: The value was 0.146.

Question: How did the “shrunken log2 fold change” value turn out when RRIRIRPPRLPRPRPRPPCHPRP was run?
Answer: Its value is -0.463.

Question: RRIRIRPPRLPRPRPRPPDNPRP was tested. Which “shrunken log2 fold change” value did it give?
Answer: Its value is -0.368.

Question: RRIRIRPPRLPRPRPRPPDPPRP was tested. Which “shrunken log2 fold change” value did it give?
Answer: The value was 0.243.

Question: With RRIRIRPPRLPRPRPRPPEGPRP as the sequence, how does the “shrunken log2 fold change” value read?
Answer: Its value is 0.115.

Question: With RRIRIRPPRLPRPRPRPPGVPRP as the sequence, how does the “shrunken log2 fold change” value read?
Answer: Its value is 0.408.

Question: Which “shrunken log2 fold change” value does the source give for RRIRIRPPRLPRPRPRPPHNPRP here?
Answer: The value was -0.521.

Question: For RRIRIRPPRLPRPRPRPPHSPRP, which “shrunken log2 fold change” value is on record?
Answer: Its value is -0.164.

Question: Which “shrunken log2 fold change” value does the source give for RRIRIRPPRLPRPRPRPPIGPRP here?
Answer: The value was -0.0282.

Question: How did the “shrunken log2 fold change” value turn out when RRIRIRPPRLPRPRPRPPIQPRP was run?
Answer: Its value is -0.468.

Question: How did the “shrunken log2 fold change” value turn out when RRIRIRPPRLPRPRPRPPKNPRP was run?
Answer: The value was -0.159.

Question: For RRIRIRPPRLPRPRPRPPMYPRP, which “shrunken log2 fold change” value is on record?
Answer: The value was -0.849.

Question: Which “shrunken log2 fold change” value does the source give for RRIRIRPPRLPRPRPRPPPCPRP here?
Answer: The value was 0.0616.

Question: With RRIRIRPPRLPRPRPRPPQYPRP as the sequence, how does the “shrunken log2 fold change” value read?
Answer: The value was -0.226.

Question: With RRIRIRPPRLPRPRPRPPRFPRP as the sequence, how does the “shrunken log2 fold change” value read?
Answer: The value was 0.0593.

Question: RRIRIRPPRLPRPRPRPPSFPRP was tested. Which “shrunken log2 fold change” value did it give?
Answer: Its value is -0.213.

Question: How did the “shrunken log2 fold change” value turn out when RRIRIRPPRLPRPRPRPPTKPRP was run?
Answer: The value was 0.126.

Question: With RRIRIRPPRLPRPRPRPPTMPRP as the sequence, how does the “shrunken log2 fold change” value read?
Answer: Its value is -0.0339.

Question: For RRIRIRPPRLPRPRPRPPTPPRP, which “shrunken log2 fold change” value is on record?
Answer: The value was 0.238.

Question: For RRIRIRPPRLPRPRPRPPTSPRP, which “shrunken log2 fold change” value is on record?
Answer: Its value is -0.172.

Question: Which “shrunken log2 fold change” value does the source give for RRIRIRPPRLPRPRPRPPVDPRP here?
Answer: The value was -0.111.

Question: How did the “shrunken log2 fold change” value turn out when RRIRIRPPRLPRPRPRPPVRPRP was run?
Answer: The value was 0.172.

Question: Which “shrunken log2 fold change” value does the source give for RRIRIRPPRLPRPRPRPPWLPRP here?
Answer: Its value is 0.412.

Question: Which “shrunken log2 fold change” value does the source give for RRIRIRPPRLPRPRPRPPYYPRP here?
Answer: Its value is -0.827.

Question: Which “shrunken log2 fold change” value does the source give for RRIRIRPPRLPRPRPRPQCPPRP here?
Answer: The value was -0.472.

Question: How did the “shrunken log2 fold change” value turn out when RRIRIRPPRLPRPRPRPQDKPRP was run?
Answer: Its value is -0.855.

Question: For RRIRIRPPRLPRPRPRPQEDPRP, which “shrunken log2 fold change” value is on record?
Answer: Its value is -0.0165.

Question: How did the “shrunken log2 fold change” value turn out when RRIRIRPPRLPRPRPRPQFTPRP was run?
Answer: The value was -0.986.

Question: For RRIRIRPPRLPRPRPRPQGKPRP, which “shrunken log2 fold change” value is on record?
Answer: Its value is -0.385.
